Values of other authors, collected in US12539328B2, “Oral vaccine via dental bacteria and emitted peptides to prevent COVID-19 infection” (priority 2021, dated 2026).

System: SARS-CoV-2 infection of Vero E6 cells
Details: first approach, built around an ACE2 helix; read-out: IC50 of SARS-CoV-2 neutralization

Row | Molecule | IC50
1 | AHB1 (protein) DEDLEELERLYRKAEEVAKEAKDASRRGDDERAKEQMERAMRLDQVFELAQELQEKQTDGNRQKATHLDKAVKEAADELYQRVR | 0.035 µM
2 | AHB2 (protein) ELEEQVMHVLDQVSELAHELLHKLTGEELERAAYFNWWATEMMLELIKSDDEREIREIEEEARRILEHLEELARK | 0.0155 µM
